Each substance was assayed against 53BP1 fragment (a.a. 1221-1718) fused to an adenylate cyclase fragment (two-hybrid) (UniProt Q12888) (assay: cell-based or functional assay).
With “i53 + D39E two-hybrid fusion (designed binder)” the Experiment 1 Average Enrichment was 0.36 log2, the Experiment 1 Rep 1 Enrichment was 0.29 log2 and the Experiment 1 Rep 2 Enrichment was 0.44 log2. The Experiment 2 Average Enrichment was -0.18 log2, the Experiment 2 Rep 1 Enrichment was -0.14 log2 and the Experiment 2 Rep 2 Enrichment was -0.23 log2. With “i53 + D32A two-hybrid fusion (designed binder)” the Experiment 1 Average Enrichment was 0.11 log2, the Experiment 1 Rep 1 Enrichment was 0.2 log2 and the Experiment 1 Rep 2 Enrichment was 0.02 log2. It also gave an Experiment 2 Average Enrichment of 0.19 log2, an Experiment 2 Rep 1 Enrichment of 0.19 log2 and an Experiment 2 Rep 2 Enrichment of 0.19 log2. Work on “i53 + S65R two-hybrid fusion (designed binder)” yielded an Experiment 1 Average Enrichment of 1.14 log2, an Experiment 1 Rep 1 Enrichment of 1.15 log2 and an Experiment 1 Rep 2 Enrichment of 1.13 log2. For the same substance, the Experiment 2 Average Enrichment was 1.1 log2, the Experiment 2 Rep 1 Enrichment was 1.48 log2 and the Experiment 2 Rep 2 Enrichment was 0.72 log2. “i53 + R54H two-hybrid fusion (designed binder)” gave an Experiment 1 Average Enrichment of 0.87 log2, an Experiment 1 Rep 1 Enrichment of 0.78 log2 and an Experiment 1 Rep 2 Enrichment of 0.96 log2. The Experiment 2 Average Enrichment was 0.49 log2, the Experiment 2 Rep 1 Enrichment was 0.43 log2 and the Experiment 2 Rep 2 Enrichment was 0.55 log2. In the case of “i53 + K33N two-hybrid fusion (designed binder)”, the Experiment 1 Average Enrichment is reported as 0.29 log2, the Experiment 1 Rep 1 Enrichment is reported as 0.48 log2 and the Experiment 1 Rep 2 Enrichment is reported as 0.1 log2. It also gave an Experiment 2 Average Enrichment of 0.24 log2, an Experiment 2 Rep 1 Enrichment of 0.06 log2 and an Experiment 2 Rep 2 Enrichment of 0.41 log2. “i53 + R74M two-hybrid fusion (designed binder)” gave an Experiment 1 Average Enrichment of 1.04 log2, an Experiment 1 Rep 1 Enrichment of 1.16 log2 and an Experiment 1 Rep 2 Enrichment of 0.91 log2. The Experiment 2 Average Enrichment was 0.68 log2, the Experiment 2 Rep 1 Enrichment was 0.68 log2 and the Experiment 2 Rep 2 Enrichment was 0.68 log2. Substance “i53 + E51D two-hybrid fusion (designed binder)” has an Experiment 1 Average Enrichment of 0.52 log2, an Experiment 1 Rep 1 Enrichment of 0.31 log2 and an Experiment 1 Rep 2 Enrichment of 0.72 log2. For the same substance, the Experiment 2 Average Enrichment was 0.61 log2, the Experiment 2 Rep 1 Enrichment was 0.29 log2 and the Experiment 2 Rep 2 Enrichment was 0.92 log2. Substance “i53 + P19K two-hybrid fusion (designed binder)” has an Experiment 1 Average Enrichment of 1 log2, an Experiment 1 Rep 1 Enrichment of 2.12 log2 and an Experiment 1 Rep 2 Enrichment of -0.12 log2. It also gave an Experiment 2 Average Enrichment of -0.68 log2, an Experiment 2 Rep 1 Enrichment of -0.26 log2 and an Experiment 2 Rep 2 Enrichment of -1.1 log2. For “i53 + S57K two-hybrid fusion (designed binder)”, the Experiment 1 Average Enrichment was -0.4 log2, the Experiment 1 Rep 1 Enrichment was -0.22 log2 and the Experiment 1 Rep 2 Enrichment was -0.58 log2. It also gave an Experiment 2 Average Enrichment of 0.15 log2, an Experiment 2 Rep 1 Enrichment of -0.07 log2 and an Experiment 2 Rep 2 Enrichment of 0.36 log2. Substance “i53 + A28M two-hybrid fusion (designed binder)” has an Experiment 1 Average Enrichment of 0.03 log2, an Experiment 1 Rep 1 Enrichment of 0.49 log2 and an Experiment 1 Rep 2 Enrichment of -0.42 log2. For the same substance, the Experiment 2 Average Enrichment was -0.19 log2, the Experiment 2 Rep 1 Enrichment was -0.51 log2 and the Experiment 2 Rep 2 Enrichment was 0.12 log2. “i53 + Q40D two-hybrid fusion (designed binder)” gave an Experiment 1 Average Enrichment of -0.31 log2, an Experiment 1 Rep 1 Enrichment of 0.13 log2 and an Experiment 1 Rep 2 Enrichment of -0.75 log2. For the same substance, the Experiment 2 Average Enrichment was 0.8 log2, the Experiment 2 Rep 1 Enrichment was 1.27 log2 and the Experiment 2 Rep 2 Enrichment was 0.33 log2. In the case of “i53 + Q31L two-hybrid fusion (designed binder)”, the Experiment 1 Average Enrichment is reported as 0.41 log2, the Experiment 1 Rep 1 Enrichment is reported as 0.71 log2 and the Experiment 1 Rep 2 Enrichment is reported as 0.11 log2. The Experiment 2 Average Enrichment was -0.15 log2, the Experiment 2 Rep 1 Enrichment was -0.23 log2 and the Experiment 2 Rep 2 Enrichment was -0.06 log2. In the case of “i53 + M1R two-hybrid fusion (designed binder)”, the Experiment 1 Average Enrichment is reported as 0.1 log2, the Experiment 1 Rep 1 Enrichment is reported as -0.01 log2 and the Experiment 1 Rep 2 Enrichment is reported as 0.22 log2. The Experiment 2 Average Enrichment was 0.21 log2, the Experiment 2 Rep 1 Enrichment was 0.11 log2 and the Experiment 2 Rep 2 Enrichment was 0.3 log2. “i53 + R54M two-hybrid fusion (designed binder)” gave an Experiment 1 Average Enrichment of 0.85 log2, an Experiment 1 Rep 1 Enrichment of 0.82 log2 and an Experiment 1 Rep 2 Enrichment of 0.89 log2. The Experiment 2 Average Enrichment was 0.56 log2, the Experiment 2 Rep 1 Enrichment was 0.56 log2 and the Experiment 2 Rep 2 Enrichment was 0.55 log2. In the case of “i53 + K48I two-hybrid fusion (designed binder)”, the Experiment 1 Average Enrichment is reported as 0.64 log2, the Experiment 1 Rep 1 Enrichment is reported as 0.5 log2 and the Experiment 1 Rep 2 Enrichment is reported as 0.77 log2. For the same substance, the Experiment 2 Average Enrichment was 0.42 log2, the Experiment 2 Rep 1 Enrichment was 0.35 log2 and the Experiment 2 Rep 2 Enrichment was 0.49 log2. With “i53 + R74I two-hybrid fusion (designed binder)” the Experiment 1 Average Enrichment was 0.83 log2, the Experiment 1 Rep 1 Enrichment was 0.84 log2 and the Experiment 1 Rep 2 Enrichment was 0.83 log2. The Experiment 2 Average Enrichment was 0.61 log2, the Experiment 2 Rep 1 Enrichment was 0.63 log2 and the Experiment 2 Rep 2 Enrichment was 0.58 log2. “i53 + M1F two-hybrid fusion (designed binder)” was tested, and the Experiment 1 Average Enrichment was 0.8 log2, the Experiment 1 Rep 1 Enrichment was 0.71 log2 and the Experiment 1 Rep 2 Enrichment was 0.9 log2. For the same substance, the Experiment 2 Average Enrichment was 0.36 log2, the Experiment 2 Rep 1 Enrichment was 0.39 log2 and the Experiment 2 Rep 2 Enrichment was 0.33 log2. Substance “i53 + Q41I two-hybrid fusion (designed binder)” has an Experiment 1 Average Enrichment of 0.3 log2, an Experiment 1 Rep 1 Enrichment of 0.3 log2 and an Experiment 1 Rep 2 Enrichment of 0.3 log2. For the same substance, the Experiment 2 Average Enrichment was -0.08 log2, the Experiment 2 Rep 1 Enrichment was 0.08 log2 and the Experiment 2 Rep 2 Enrichment was -0.25 log2.
